Measurements reported in patent US20250066450A1 (LASK PHARMA, published 2025).

Molecular target: T1, BMP10 (UniProt O95393 317-424)
T1 sequence (looked up): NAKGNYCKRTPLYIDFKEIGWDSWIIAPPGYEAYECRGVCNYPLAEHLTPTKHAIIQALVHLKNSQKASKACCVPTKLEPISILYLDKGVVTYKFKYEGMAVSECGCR
Test: Biacore (SPR); Fc fusion captured with anti-Fc antibody, ligand injected (FIG. 3B)
Description: A Biacore™-based binding assay was used to compare ligand binding selectivity of the ALK6 variant-Fc dimeric complex (e.g., SEQ ID NO: 46) described above with that of ALK6 wt-Fc complexes (SEQ ID NO: 49). The Fc dimeric complexes were independently captured onto the system using an anti-Fe antibody. Ligands were injected and allowed to flow over the captured receptor protein.

binding result: no binding
B1: ALK6-Fc fusion polypeptide (SEQ ID NO: 89) (Fc fusion)
chain: KKEDGESTAPTPRPKVLRCYCSGHCPEDSVNNICSTDGYCFTMIEEDDSGLPVVTSGCLKLEGSDFQCRDTPIPHQRRSIECCTERNECNKDLHPTLPPVVIGPFFDGSIRTGGGGSGGGGSGGGGSGGGGSTHTCPPCPAPEAAGGPSVFLFPPKPKDTLMISRTPEVTCVVVDVSHEDPEVKFNWYVDGVEVHNAKTKPREEQYNSTYRVVSVLTVLHQDWLNGKEYKCKVSNKALPAPIEKTISKAKGQPREPQVYTLPPSREEMTKNQVSLTCLVKGFYPSDIAVEWESNGQPENNYKTTPPVLDSDGSFFLYSKLTVDKSRWQQGNVFSCSVMHEALHNHYTQKSLSLSPG
